Measured values from patent US7951560B2, “Delta 4,5 glycuronidase compositions and methods related thereto” (Massachusetts Institute of Technology, priority 2002, dated 2011).
“Also recorded” adds a separate entry of the source.

Columns and labels:
[1] = substrate: CC(=O)N[C@H]1C(O)O[C@H](CO)[C@@H](O[C@@H]2OC(C(=O)O)=C[C@H](O)[C@H]2O)[C@@H]1O; assay: Kinetic parameters of Δ4, 5 glycuronidase for disaccharide substrates (loss of absorbance at 232 nm, Michaelis-Menten fit); type: biochemical, F. heparinum; details: other: 200 nM enzyme, 30° C., pH 6.4, substrate 48 to 400 μM
Method: (§1) Assay for enzyme activity and determination of kinetic parameters. Standard reactions were carried out at 30° C. and included 100 mM sodium phosphate buffer, pH 6.4, 50 mM NaCl, 500 μM disaccharide substrate and 200 nM enzyme in a 100 μl reaction volume. Hydrolysis of heparin disaccharides was determined spectrophotometrically by measuring the loss of the Δ4, 5 chromophore measured at 232 nm Substrate hydrolysis was calculated using the following molar extinction coefficients empirically determined for each disaccharide substrate: ΔUHNAc, ε232=4,524; ΔUHNAc6S, ε232=4,300; ΔUHNS, ε232=6,600; ΔUHNS,6S, ε232=6,075; ΔUHNH26S, ε232=4,826; ΔU2SHNS, ε232=4,433. Initial rates (Vo) were extrapolated from linear activities representing <10% substrate turnover and fit to pseudo first-order kinetics. For kinetic experiments, disaccharide concentration for each respective substrate was varied from 48 to 400 μM concentrations. Km and kcat values were extrapolated from Vo vs. [S] curves fit to the Michaelis Menten equation by a non-linear, least squares regression.
(§2) The specificity of the Δ4, 5 glycuronidase acting on various glycosaminoglycan disaccharide substrates was investigated. The various substrates examined included both heparin and chondroitin disaccharides as well as an hyaluronadate. In particular, we considered the possibility of any structural discriminations pertaining to glycosidic linkage position (1→4 vs. 1→3) and relative sulfation state within the disaccharide. For each substrate, kinetic parameters were determined based on substrate saturation profiles that fit Michaelis-Menten assumptions (FIG. 8).

[2] = substrate: N[C@H]1C(O)O[C@H](COS(=O)(=O)O)[C@@H](O[C@@H]2OC(C(=O)O)=C[C@H](O)[C@H]2O)[C@@H]1O; assay: as above; type: biochemical, F. heparinum; details: other: 200 nM enzyme, 30° C., pH 6.4, substrate 48 to 400 μM
Method: as §1, §2

[3] = substrate: CC(=O)N[C@H]1C(O)O[C@H](COS(=O)(=O)O)[C@@H](O[C@@H]2OC(C(=O)O)=C[C@H](O)[C@H]2O)[C@@H]1O; assay: as above; type: biochemical, F. heparinum; details: other: 200 nM enzyme, 30° C., pH 6.4, substrate 48 to 400 μM
Method: as §1, §2

[4] = substrate: O=C(O)C1=C[C@H](O)[C@@H](O)[C@H](O[C@H]2[C@H](O)[C@@H](NS(=O)(=O)O)C(O)O[C@@H]2CO)O1; assay: as above; type: biochemical, F. heparinum; details: other: 200 nM enzyme, 30° C., pH 6.4, substrate 48 to 400 μM
Method: as §1, §2

[5] = substrate: O=C(O)C1=C[C@H](O)[C@@H](O)[C@H](O[C@H]2[C@H](O)[C@@H](NS(=O)(=O)O)C(O)O[C@@H]2COS(=O)(=O)O)O1; assay: as above; type: biochemical, F. heparinum; details: other: 200 nM enzyme, 30° C., pH 6.4, substrate 48 to 400 μM
Method: as §1, §2

[6] = Specific activity of recombinant Δ4, 5 glycuronidase purification fractions; type: biochemical; details: 800 ng protein, 120 μM ΔUHNAc, 100 μl
Method: as §1
(§3) A two-step purification comprised of Ni^+2 chelation chromatography followed by thrombin cleavage to remove the 6× His purification tag, typically yielded over 200 mg of greater than 90% pure enzyme as assessed by SDS-PAGE followed by Coomassie Brilliant Blue staining. […] T. and Linker, A., 1972, Biochemistry 11, 568-72]. While removal of the 6× His tag from the N-terminus of the enzyme was unnecessary for optimal hydrolytic activity, the presence of the histidine tag did appear to instigate protein precipitation over an extended time especially at higher enzyme concentrations. This tag was, therefore removed for all subsequent biochemical experiments. In this manner, the recombinant protein was stable at 4° C. for at least two weeks during which time it remained in solution at protein concentrations exceeding 10 mg/mL under the buffer conditions described.

[7] = Kinetic comparison of native and recombinant enzymes; type: biochemical; details: identical reaction conditions, 200 nM enzyme, 500 μM ΔUHNAc
Method: FIG. 7 depicts a kinetic comparison of native and recombinant enzymes. Relative specific activities were measured for both enzyme fractions under identical reaction conditions that included 200 nM enzyme and 500 μM of the heparin disaccharide substrate (ΔUHNAc). Flavobacterial Δ4, 5 (closed circles); recombinant Δ4, 5 (open circles).
Having established the reaction conditions for optimal Δ4, 5 glycuronidase activity, we next compared the specific activity of the recombinant enzyme (Δ4,5^Δ20) relative to the native enzyme purified directly from F. heparinum (FIG. 7). The activities of both enzyme fractions were measured in parallel under identical reaction conditions.

[8] = Storage stability and solubility of the recombinant protein after 6× His tag removal; type: physicochemical; details: 6× His tag removed, phosphate buffer
Method: as §3

[9] = Biochemical conditions for optimal enzyme activity (NaCl, pH, temperature, divalent metals)
Method: For experiments measuring the relative effect of ionic strength on glycuronidase activity, the NaCl concentration was varied from 0.05 to 1 M in 0.1 M sodium phosphate buffer (pH 6.4), 200 μM ΔUHNS,6S and […] under otherwise standard reaction conditions. The effect of pH on catalytic activity was kinetically determined at varying AUHNS,6S concentrations in 0.1 M sodium phosphate buffer at pH 5.2, 5.6, 6.0, 6.4, 6.8, 7.2 and 7.8. Data were fit to Michaelis-Menten kinetics as described above and the relative kcat/Km ratios plotted as a function of pH.
To determine the optimal reaction conditions for Δ4, 5 glycuronidase activity, we analyzed initial reaction rates as a function of buffer, pH, temperature, and ionic strength (FIG. 6). For these experiments, we used the disulfated heparin disaccharide substrate ΔUHNS,6S. Based on what is known about the degradation of heparin/heparan sulfate-like glycosaminoglycans by flavobacteria as well as initial biochemical characterization of this and related enzymes [Warnick, C. T. and Linker, A., 1972, Biochemistry 11, 568-72], we hypothesized that a heparin disaccharide would be an optimal substrate for the Δ4, 5 glycuronidase. Enzyme activity was routinely monitored by a loss of absorbance at 232 nm, corresponding indirectly to the hydrolysis of the uronic acid from the non-reducing end.

B1: recombinant Δ4, 5 glycuronidase (Δ4,5^Δ20) (Pedobacter heparinus DSM 2366) (protein)
chain: MTVTKGNGDDWLKKSTKTAVIQLTRAAQTYTPGMNPRSVNPDGTVRLAPPRDWTTGFFPGTLWYGYELSGDKNLAAEAKRFTLALDTIQYVKDTHDLGFMLYCSYGNAYRVTGDKIYLKPLENGAANLYARFNKKVGAIRSWDFGHWQFPVIIDNLMNLEYLYWAGKEFNKPEWFDAAKTHAVTTMKNHFRKDYSSYHVISYDTLSGKVLQRETHQGLTNESAWARGQAWGLYGYTMSYKDTKDKKFIEHAEHIAAFIMNHPAMPADKIPLWDFDVHNRDRSPRDASAAAVIASALLDLSTQVKDGQKYFKFAEDILKTLSSDEYLAKPGENQFFILKHSVGALLYNSEIDTPLNYADYYYLEALKRYAEIKKIDLKTINQS
Question: Which results are given for B1?
Answer: Km [1]: 283 ± 31 µM; kcat [1]: 15.3 ± 0.9 s⁻¹; kcat/Km [1]: 54000 M⁻¹ s⁻¹; Km [2]: 235 ± 40 µM; kcat [2]: 2.4 ± 0.2 s⁻¹; kcat/Km [2]: 10000 M⁻¹ s⁻¹; Km [3]: 107 ± 15 µM; kcat [3]: 11.7 ± 0.6 s⁻¹; kcat/Km [3]: 110000 M⁻¹ s⁻¹; Km [4]: 251 ± 40 µM; kcat [4]: 4.9 ± 0.4 s⁻¹; kcat/Km [4]: 20000 M⁻¹ s⁻¹; Km [5]: 334 ± 57 µM; kcat [5]: 8.8 ± 0.9 s⁻¹; kcat/Km [5]: 26000 M⁻¹ s⁻¹; Sp. Activity ([6]; Crude lysate): 4.7 μmoles DiS/min./mg protein; Sp. Activity ([6]; Ni^+2 chromatography): 12.9 μmoles DiS/min./mg protein; Sp. Activity ([6]; Thrombin cleavage): 13.6 μmoles DiS/min./mg protein; specific activity relative to the native Flavobacterial enzyme [7]: approximately three-fold; also recorded: at least two-fold; also recorded: roughly three-fold; stable at 4° C. [8]: at least two weeks; requirement for divalent metal ions [9]: no evidence that metals are either required for catalysis or activate the enzyme; pH optimum ([9]; 0.1 M sodium phosphate pH 5.2-7.8, ΔUHNS,6S, relative kcat/Km): 6.4; initial reaction rates at highest temperatures ([9]; especially at 42° C.): significantly reduced; relative enzyme activities after preincubation (enzyme stability) ([9]; preincubation at 30, 37, and 42° C., then measured at standard 30° C.): no significant change; inhibition at 250 mM NaCl ([9]; relative to 100% activity at 100 mM NaCl): approximately 60%
